IntAct's records for PubMed 22582013

B1: Extracellular serine/threonine protein kinase FAM20C (Homo sapiens), Q8IXL6 (parent)
chain: MKMMLVRRFRVLILMVFLVACALHIALDLLPRLERRGARPSGEPGCSCAQPAAEVAAPGWAQVRGRPGEPPAASSAAGDAGWPNKHTLRILQDFSSDPSSNLSSHSLEKLPPAAEPAERALRGRDPGALRPHDPAHRPLLRDPGPRRSESPPGPGGDASLLARLFEHPLYRVAVPPLTEEDVLFNVNSDTRLSPKAAENPDWPHAGAEGAEFLSPGEAAVDSYPNWLKFHIGINRYELYSRHNPAIEALLHDLSSQRITSVAMKSGGTQLKLIMTFQNYGQALFKPMKQTREQETPPDFFYFSDYERHNAEIAAFHLDRILDFRRVPPVAGRMVNMTKEIRDVTRDKKLWRTFFISPANNICFYGECSYYCSTEHALCGKPDQIEGSLAAFLPDLSLAKRKTWRNPWRRSYHKRKKAEWEVDPDYCEEVKQTPPYDSSHRILDVMDMTIFDFLMGNMDRHHYETFEKFGNETFIIHLDNGRGFGKYSHDELSILVPLQQCCRIRKSTYLRLQLLAKEEYKLSLLMAESLRGDQVAPVLYQPHLEALDRRLRVVLKAVRDCVERNGLHSVVDDDLDTEHRAASAR

Variants of: B1
Settings: with ostp_human SPP1, P10451
Chain of ostp_human SPP1, P10451 (P10451 whole entry): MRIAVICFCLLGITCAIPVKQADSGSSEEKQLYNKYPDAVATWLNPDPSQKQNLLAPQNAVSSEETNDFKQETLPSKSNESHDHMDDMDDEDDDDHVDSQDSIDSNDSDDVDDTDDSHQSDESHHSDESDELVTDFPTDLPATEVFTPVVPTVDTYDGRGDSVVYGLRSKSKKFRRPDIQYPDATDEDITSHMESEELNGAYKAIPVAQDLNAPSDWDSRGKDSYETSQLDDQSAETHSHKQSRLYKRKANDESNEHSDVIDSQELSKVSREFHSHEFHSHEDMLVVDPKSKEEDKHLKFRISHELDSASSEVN

Row | Variant | effect of a mutation on the interaction
1 | I258N;G280R | with no effect
2 | P328S | with no effect
3 | K338R | with no effect
4 | G379E | with no effect
5 | G379R | with no effect
6 | D451N | with no effect
7 | D478A | with no effect
8 | R549W | with no effect
